Assay results taken from paper PMC3138243 (The Journal of Biological Chemistry, 2011).
Read-outs that look alike come from different tables or passages of the source.

Tests used:
[1] = target: T1, CLOCK (co-expressed with BMAL1);BMAL1 (Mus musculus;Mus musculus, UniProt O08785;Q9WTL8 1-855;1-632, |); assay: EMSA
[2] = target: T2, CLOCK (co-expressed with BMAL1);BMAL1;CRY1 (Mus musculus;Mus musculus;Mus musculus, UniProt O08785;Q9WTL8;P97784 1-855;1-632;1-606, ||); assay: EMSA supershift
CLOCK:BMAL1 heterodimer = CLOCK:BMAL1 heterodimer (mouse, UniProt O08785;Q9WTL8); assay: native gel or EMSA
Sequence of CLOCK:BMAL1 heterodimer (Q9WTL8 whole entry, one chain of several): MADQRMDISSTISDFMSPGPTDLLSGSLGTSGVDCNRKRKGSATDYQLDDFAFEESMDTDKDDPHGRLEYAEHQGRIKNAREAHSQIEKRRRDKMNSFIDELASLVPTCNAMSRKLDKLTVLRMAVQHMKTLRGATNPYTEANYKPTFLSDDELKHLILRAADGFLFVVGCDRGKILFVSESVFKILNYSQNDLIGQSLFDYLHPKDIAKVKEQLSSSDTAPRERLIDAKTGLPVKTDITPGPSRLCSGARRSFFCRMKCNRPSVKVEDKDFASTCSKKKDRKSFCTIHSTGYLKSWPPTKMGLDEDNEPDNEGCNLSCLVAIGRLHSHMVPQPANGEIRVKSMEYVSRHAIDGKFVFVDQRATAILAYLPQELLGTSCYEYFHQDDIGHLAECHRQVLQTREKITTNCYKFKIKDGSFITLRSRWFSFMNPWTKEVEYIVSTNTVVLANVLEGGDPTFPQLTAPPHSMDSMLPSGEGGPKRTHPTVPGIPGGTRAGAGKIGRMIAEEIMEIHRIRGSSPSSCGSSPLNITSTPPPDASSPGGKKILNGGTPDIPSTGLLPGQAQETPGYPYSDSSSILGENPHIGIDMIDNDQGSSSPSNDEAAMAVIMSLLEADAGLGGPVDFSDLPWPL

PER2 = PER2 (mouse, UniProt O54943 1-1257); assay: co-IP
Sequence of PER2 (O54943 whole entry): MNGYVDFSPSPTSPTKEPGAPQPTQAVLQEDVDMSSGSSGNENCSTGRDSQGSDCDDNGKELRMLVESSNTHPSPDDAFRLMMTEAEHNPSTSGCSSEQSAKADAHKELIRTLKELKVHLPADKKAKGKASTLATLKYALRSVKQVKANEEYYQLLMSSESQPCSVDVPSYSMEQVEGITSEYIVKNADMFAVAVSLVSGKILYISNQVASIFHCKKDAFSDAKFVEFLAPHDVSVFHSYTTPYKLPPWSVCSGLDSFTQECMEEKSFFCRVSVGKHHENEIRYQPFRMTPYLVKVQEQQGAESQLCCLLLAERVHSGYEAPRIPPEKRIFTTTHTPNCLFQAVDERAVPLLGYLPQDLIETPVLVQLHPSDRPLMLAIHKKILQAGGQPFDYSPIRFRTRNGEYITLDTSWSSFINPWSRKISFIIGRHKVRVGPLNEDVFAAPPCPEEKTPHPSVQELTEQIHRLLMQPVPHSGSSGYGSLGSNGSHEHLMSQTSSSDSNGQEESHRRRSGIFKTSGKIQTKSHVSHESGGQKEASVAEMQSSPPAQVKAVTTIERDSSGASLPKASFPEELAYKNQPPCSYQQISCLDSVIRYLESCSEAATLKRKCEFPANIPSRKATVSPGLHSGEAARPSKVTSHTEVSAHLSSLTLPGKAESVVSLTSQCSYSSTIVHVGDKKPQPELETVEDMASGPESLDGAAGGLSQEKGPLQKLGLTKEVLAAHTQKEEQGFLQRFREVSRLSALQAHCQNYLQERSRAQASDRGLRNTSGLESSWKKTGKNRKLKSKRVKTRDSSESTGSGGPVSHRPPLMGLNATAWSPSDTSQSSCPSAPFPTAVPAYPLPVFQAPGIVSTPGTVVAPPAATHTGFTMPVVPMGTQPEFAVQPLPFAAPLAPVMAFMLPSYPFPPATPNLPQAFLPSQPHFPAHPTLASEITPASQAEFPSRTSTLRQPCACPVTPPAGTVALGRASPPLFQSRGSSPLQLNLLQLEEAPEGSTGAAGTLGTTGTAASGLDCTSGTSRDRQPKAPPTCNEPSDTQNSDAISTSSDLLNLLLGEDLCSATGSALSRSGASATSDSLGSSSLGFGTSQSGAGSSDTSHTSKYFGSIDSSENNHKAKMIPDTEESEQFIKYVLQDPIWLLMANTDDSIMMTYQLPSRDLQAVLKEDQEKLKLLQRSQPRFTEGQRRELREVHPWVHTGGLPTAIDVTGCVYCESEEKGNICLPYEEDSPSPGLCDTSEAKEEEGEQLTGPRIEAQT

[3] = target: T1, CLOCK (co-expressed with BMAL1);BMAL1; assay: EMSA; remark: listed apart in the source
CRY1 = target: T3, CRY1 (Mus musculus, UniProt P97784 1-606); assay: EMSA
T3 sequence: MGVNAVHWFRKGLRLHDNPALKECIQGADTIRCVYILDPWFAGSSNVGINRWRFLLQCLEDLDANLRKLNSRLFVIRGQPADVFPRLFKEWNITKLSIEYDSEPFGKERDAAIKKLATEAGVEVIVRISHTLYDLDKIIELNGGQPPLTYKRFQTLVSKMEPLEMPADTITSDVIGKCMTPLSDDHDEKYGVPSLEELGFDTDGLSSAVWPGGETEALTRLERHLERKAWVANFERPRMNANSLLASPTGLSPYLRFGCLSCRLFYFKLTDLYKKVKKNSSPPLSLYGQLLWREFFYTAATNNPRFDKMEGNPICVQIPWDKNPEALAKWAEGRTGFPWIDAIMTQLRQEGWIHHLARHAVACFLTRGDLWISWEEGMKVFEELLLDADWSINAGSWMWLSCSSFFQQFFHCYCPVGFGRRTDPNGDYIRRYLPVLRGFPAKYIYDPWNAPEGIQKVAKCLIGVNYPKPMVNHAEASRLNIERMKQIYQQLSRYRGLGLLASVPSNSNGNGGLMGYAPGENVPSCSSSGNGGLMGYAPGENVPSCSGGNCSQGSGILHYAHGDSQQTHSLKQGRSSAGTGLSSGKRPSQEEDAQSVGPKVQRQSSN

[4] = target: T2, CLOCK (co-expressed with …); assay: EMSA supershift; remark: listed apart in the source
BMAL1 = BMAL1 (Mus musculus, UniProt Q9WTL8 1-632); assay: EMSA
Sequence of BMAL1 (Q9WTL8 whole entry): as the sequence (Q9WTL8 whole entry, one chain of several) above

[5] = target: CLOCK (co-expressed with BMAL1);BMAL1;hCRY1 (Mus musculus;Mus musculus;Homo sapiens, UniProt O08785;Q9WTL8;Q16526 1-855;1-632;1-586, ||); assay: EMSA
Sequence of CLOCK (co-expressed with BMAL1);BMAL1;hCRY1 (Q9WTL8 whole entry, one chain of several): as above

[6] = target: CLOCK (co-expressed with BMAL1);BMAL1;CRY2 (Mus musculus;Mus musculus;Mus musculus, UniProt O08785;Q9WTL8;Q9R194 1-855;1-632;1-592, ||); assay: EMSA supershift
Sequence of CLOCK (co-expressed with BMAL1);BMAL1;CRY2 (Q9WTL8 whole entry, one chain of several): as above

T1 sequence (Q9WTL8 whole entry, one chain of several): as above
T2 sequence (Q9WTL8 whole entry, one chain of several): as above

B1: P2GS 60-bp duplex (dsDNA)
DNA 1: CATCACCCACTCACCCCTTAACGACACGTGGGCCCTCAATTGCCCTTCTCTCAGGATCTG
DNA 2: CAGATCCTGAGAGAAGGGCAATTGAGGGCCCACGTGTCGTTAAGGGGTGAGTGGGTGATG
B1: binds [1]; binds [2].

B2: CRY1 (natural protein)
chain: MGVNAVHWFRKGLRLHDNPALKECIQGADTIRCVYILDPWFAGSSNVGINRWRFLLQCLEDLDANLRKLNSRLFVIRGQPADVFPRLFKEWNITKLSIEYDSEPFGKERDAAIKKLATEAGVEVIVRISHTLYDLDKIIELNGGQPPLTYKRFQTLVSKMEPLEMPADTITSDVIGKCMTPLSDDHDEKYGVPSLEELGFDTDGLSSAVWPGGETEALTRLERHLERKAWVANFERPRMNANSLLASPTGLSPYLRFGCLSCRLFYFKLTDLYKKVKKNSSPPLSLYGQLLWREFFYTAATNNPRFDKMEGNPICVQIPWDKNPEALAKWAEGRTGFPWIDAIMTQLRQEGWIHHLARHAVACFLTRGDLWISWEEGMKVFEELLLDADWSINAGSWMWLSCSSFFQQFFHCYCPVGFGRRTDPNGDYIRRYLPVLRGFPAKYIYDPWNAPEGIQKVAKCLIGVNYPKPMVNHAEASRLNIERMKQIYQQLSRYRGLGLLASVPSNSNGNGGLMGYAPGENVPSCSSSGNGGLMGYAPGENVPSCSGGNCSQGSGILHYAHGDSQQTHSLKQGRSSAGTGLSSGKRPSQEEDAQSVGPKVQRQSSN
B2: binds (CLOCK:BMAL1 heterodimer).

B3: Myc-CRY1 (natural protein)
chain: MGVNAVHWFRKGLRLHDNPALKECIQGADTIRCVYILDPWFAGSSNVGINRWRFLLQCLEDLDANLRKLNSRLFVIRGQPADVFPRLFKEWNITKLSIEYDSEPFGKERDAAIKKLATEAGVEVIVRISHTLYDLDKIIELNGGQPPLTYKRFQTLVSKMEPLEMPADTITSDVIGKCMTPLSDDHDEKYGVPSLEELGFDTDGLSSAVWPGGETEALTRLERHLERKAWVANFERPRMNANSLLASPTGLSPYLRFGCLSCRLFYFKLTDLYKKVKKNSSPPLSLYGQLLWREFFYTAATNNPRFDKMEGNPICVQIPWDKNPEALAKWAEGRTGFPWIDAIMTQLRQEGWIHHLARHAVACFLTRGDLWISWEEGMKVFEELLLDADWSINAGSWMWLSCSSFFQQFFHCYCPVGFGRRTDPNGDYIRRYLPVLRGFPAKYIYDPWNAPEGIQKVAKCLIGVNYPKPMVNHAEASRLNIERMKQIYQQLSRYRGLGLLASVPSNSNGNGGLMGYAPGENVPSCSSSGNGGLMGYAPGENVPSCSGGNCSQGSGILHYAHGDSQQTHSLKQGRSSAGTGLSSGKRPSQEEDAQSVGPKVQRQSSN
B3: binds (CLOCK:BMAL1 heterodimer).

B4: human CRY1 (natural protein)
chain: MGVNAVHWFRKGLRLHDNPALKECIQGADTIRCVYILDPWFAGSSNVGINRWRFLLQCLEDLDANLRKLNSRLFVIRGQPADVFPRLFKEWNITKLSIEYDSEPFGKERDAAIKKLATEAGVEVIVRISHTLYDLDKIIELNGGQPPLTYKRFQTLISKMEPLEIPVETITSEVIEKCTTPLSDDHDEKYGVPSLEELGFDTDGLSSAVWPGGETEALTRLERHLERKAWVANFERPRMNANSLLASPTGLSPYLRFGCLSCRLFYFKLTDLYKKVKKNSSPPLSLYGQLLWREFFYTAATNNPRFDKMEGNPICVQIPWDKNPEALAKWAEGRTGFPWIDAIMTQLRQEGWIHHLARHAVACFLTRGDLWISWEEGMKVFEELLLDADWSINAGSWMWLSCSSFFQQFFHCYCPVGFGRRTDPNGDYIRRYLPVLRGFPAKYIYDPWNAPEGIQKVAKCLIGVNYPKPMVNHAEASRLNIERMKQIYQQLSRYRGLGLLASVPSNPNGNGGFMGYSAENIPGCSSSGSCSQGSGILHYAHGDSQQTHLLKQGRSSMGTGLSGGKRPSQEEDTQSIGPKVQRQSTN
B4: binds (CLOCK:BMAL1 heterodimer).

B5: CLOCK (natural protein)
chain: MVFTVSCSKMSSIVDRDDSSIFDGLVEEDDKDKAKRVSRNKSEKKRRDQFNVLIKELGSMLPGNARKMDKSTVLQKSIDFLRKHKETTAQSDASEIRQDWKPTFLSNEEFTQLMLEALDGFFLAIMTDGSIIYVSESVTSLLEHLPSDLVDQSIFNFIPEGEHSEVYKILSTHLLESDSLTPEYLKSKNQLEFCCHMLRGTIDPKEPSTYEYVRFIGNFKSLTSVSTSTHNGFEGTIQRTHRPSYEDRVCFVATVRLATPQFIKEMCTVEEPNEEFTSRHSLEWKFLFLDHRAPPIIGYLPFEVLGTSGYDYYHVDDLENLAKCHEHLMQYGKGKSCYYRFLTKGQQWIWLQTHYYITYHQWNSRPEFIVCTHTVVSYAEVRAERRRELGIEESLPETAADKSQDSGSDNRINTVSLKEALERFDHSPTPSASSRSSRKSSHTAVSDPSSTPTKIPTDTSTPPRQHLPAHEKMTQRRSSFSSQSINSQSVGPSLTQPAMSQAANLPIPQGMSQFQFSAQLGAMQHLKDQLEQRTRMIEANIHRQQEELRKIQEQLQMVHGQGLQMFLQQSNPGLNFGSVQLSSGNSNIQQLTPVNMQGQVVPANQVQSGHISTGQHMIQQQTLQSTSTQQSQQSVMSGHSQQTSLPSQTPSTLTAPLYNTMVISQPAAGSMVQIPSSMPQNSTQSATVTTFTQDRQIRFSQGQQLVTKLVTAPVACGAVMVPSTMLMGQVVTAYPTFATQQQQAQTLSVTQQQQQQQQQPPQQQQQQQQSSQEQQLPSVQQPAQAQLGQPPQQFLQTSRLLHGNPSTQLILSAAFPLQQSTFPPSHHQQHQPQQQQQLPRHRTDSLTDPSKVQPQ
B5: binds (PER2).

B6: M34 (dsDNA)
DNA 1: GGGACACGTGACCC
DNA 2: GGGTCACGTGTCCC
B6: binds [3]; no binding (CRY1); binds [4]. B6: binds (BMAL1); binds [5]; binds [6].

B7: CRY2 (natural protein)
chain: MAAAAVVAATVPAQSMGADGASSVHWFRKGLRLHDNPALLAAVRGARCVRCVYILDPWFAASSSVGINRWRFLLQSLEDLDTSLRKLNSRLFVVRGQPADVFPRLFKEWGVTRLTFEYDSEPFGKERDAAIMKMAKEAGVEVVTENSHTLYDLDRIIELNGQKPPLTYKRFQALISRMELPKKPAVAVSSQQMESCRAEIQENHDDTYGVPSLEELGFPTEGLGPAVWQGGETEALARLDKHLERKAWVANYERPRMNANSLLASPTGLSPYLRFGCLSCRLFYYRLWDLYKKVKRNSTPPLSLFGQLLWREFFYTAATNNPRFDRMEGNPICIQIPWDRNPEALAKWAEGKTGFPWIDAIMTQLRQEGWIHHLARHAVACFLTRGDLWVSWESGVRVFDELLLDADFSVNAGSWMWLSCSAFFQQFFHCYCPVGFGRRTDPSGDYIRRYLPKLKGFPSRYIYEPWNAPESVQKAAKCIIGVDYPRPIVNHAETSRLNIERMKQIYQQLSRYRGLCLLASVPSCVEDLSHPVAEPGSSQAGSISNTGPRALSSGPASPKRKLEAAEEPPGEELTKRARVTEMPTQEPASKDS
B7: binds (CLOCK:BMAL1 heterodimer).
